Reference: PMC9401620

T1: RBM46 (mouse, UniProt P86049 1-533)
T1 sequence: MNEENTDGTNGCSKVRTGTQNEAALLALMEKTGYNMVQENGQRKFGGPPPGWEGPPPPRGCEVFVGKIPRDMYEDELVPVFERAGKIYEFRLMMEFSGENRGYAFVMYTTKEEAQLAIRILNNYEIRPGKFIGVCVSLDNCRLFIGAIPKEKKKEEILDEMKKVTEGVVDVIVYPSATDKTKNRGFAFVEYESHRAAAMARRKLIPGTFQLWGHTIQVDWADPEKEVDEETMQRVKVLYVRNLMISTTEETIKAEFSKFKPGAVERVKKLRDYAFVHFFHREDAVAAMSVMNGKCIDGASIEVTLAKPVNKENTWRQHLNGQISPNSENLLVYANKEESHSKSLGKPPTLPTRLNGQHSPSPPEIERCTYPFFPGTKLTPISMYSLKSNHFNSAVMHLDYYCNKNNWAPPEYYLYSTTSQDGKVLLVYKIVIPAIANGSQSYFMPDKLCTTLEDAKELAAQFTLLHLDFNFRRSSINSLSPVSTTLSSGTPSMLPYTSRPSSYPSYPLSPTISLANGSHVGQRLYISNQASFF


Target: T1, RBM46
Assay: EMSA

Binder | binding result
UUGUGAAACUAAAACCCGAC (ssRNA) [Ccna2 3'UTR RNA probe] | binds
UGUUUGAAACAGGAGUCGCU (ssRNA) [RNA probe without RBM46-binding motif] | no binding
